Experimental data: the RNAGym collection of RNA variant scans (doi:10.1073/pnas.2313332121)
Variants at the floor of the assay were thinned out.

B1: TPR 5TU (parent)
chain: GGAUCUUCUCGAUCUAACAAAAAAGACAAAUCUGCCACAAAGCUUGAGAGCAUCUUCGGAUGCAGAGGCGGCAGCCUUCGGUGGCGCGAUAGCGCCAACGUUCUCAACUAUGACACGCAAAACGCGUGCUCCGUUGAAUGGAGUUUAUCAUG

Variants of: B1
Assay: polymerase ribozyme fitness, log enrichment relative to wild type (log ratio); higher = more active; in vitro selection for triplet polymerase activity
How it was run: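 Genotype fitness is the logarithm of its enrichment divided by wild-type enrichment, using inverse-variance-weighted averages of replicates. That logarithm is base 2. Enrichment was measured by Illumina sequencing of input and output libraries from one triplicate in vitro selection round, with frozen incubation at −7 °C, on PCR-built, transcribed mutant libraries of each subunit of a heterodimeric triplet polymerase ribozyme, retaining genotypes with ≥10 input reads and ≥1 read per output.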
With GGAUCUUCUCGAUCUAACAAAAAAGACAAAUCUGCCACAAAGCUUGAGAGCAUCUUCGGUUGCAGAGGCGGCAGCCUUCGGUGGCGCGAUAGCGCCCACGUUCCCAACUAUGACACGCAAAACGCGUGCUCCGGUGAAUGGAGCUUAUCAUG the “polymerase ribozyme fitness (log ratio)” value was -4.05.
With GGAUCUUCUCGAUCUAACAAAAAAGACAAAUCUGCCACAAAGCUUGAGAGCAUCUUCGGGUGCAGAGGCGGCAGCCUUCGGUAGCGCGAUAGCGCCAACGUUCUCAACUAUGACACGCAAAACGCGUGCUCCGUUGAAUGGAGUUUAUCAUG the “polymerase ribozyme fitness (log ratio)” value was -1.4.
In the case of GGAUCUUCUCGAUCUAACAAAAAAGACAAAUCUGCCACAAAGCUUGAGAGCAUCUUCGGGUGCAGAGGCGGCAGCCUUCGGUCGCGCGAUAGCGCCAACGUUCUCAACUAUGACACGCAAAACGCGUGCUCCGUUGAAUGGAGUUUAUCAUG, the “polymerase ribozyme fitness (log ratio)” value is reported as -0.826.
With GGAUCUUCUCGAUCUAACAAAAAAGACAAAUCUGCCACAAAGCUUGAGAGCAUCUUCGGGUGCAGAGGUGGCAGCCUUCGGUGGCGCGAUAGCGCCAACGUUCUCAACUAUGACACGCAAACCGCGUGCUCCGUCGAAUGGAGUUUAUCAUG the “polymerase ribozyme fitness (log ratio)” value was -3.94.
In the case of GGAUCUUCUCGAUCUAACAAAAAAGACAAAUCUGCCACAAAGCUUGAGAGCAUCUUCGGUUGCAGAGGAGGCAGCCUUCGGUGGCGCGUUAGCGCCAACGUUCUCAACUAUGACACGCAAAACGCGUGCUCCGUUGAAUGGAGUUUAUCAUG, the “polymerase ribozyme fitness (log ratio)” value is reported as -0.419.
With GGAUCUUCUCGAUCUAACAAAAAAGACAAAUCUGCCACAAAGCUUGAGAGCAUCUUCGGGUGCAGAGGCGGCAGCCUUCGGUGGCGCGAUAGCGCCAACGUUCUCAAUUAUGACACGCAAAACGCUUGCUCCGUUGAAUGGAGUUUAUCAUG the “polymerase ribozyme fitness (log ratio)” value was -3.26.
In the case of GGAUCUUCUCGAUCUAACAAAAAAGACAAAUCUGCCACAAAGCUUGAGAGCAUCUUCGGGUGCAGAGGCGGCAGCCUUCGGUGGUGCGAUAGCGCCAACGUUCUCAACUAUGACACGCAAAACGCGUGCUCCGUUGAAUGGAGUUUAUCAUG, the “polymerase ribozyme fitness (log ratio)” value is reported as -0.323.
With GGAUCUUCUCGAUCUAACAAAAAAGACAAAUCUGCCACAAAGCUUGAGAGCAUCUUCGGUUGCAGAGGCGGCAGCCUUCGGUGCCGCGAUAGCGCCAACGUUCUCAACUAUGACACGCAAAAGGCGUGCUCCGUUGAAUGGAGUUUAUCAUG the “polymerase ribozyme fitness (log ratio)” value was -3.24.
In the case of GGAUCUUCUCGAUCUAACAAAAAAGACAAAUCUGCCACAAAGCUUGAGAGCAUCUUCGGGUGCAGAGGCGGCAGCCUUCGGUGGCGCGAUAGUGCCAACGUUCUCAACUAUGACACGCAAAACGCGUGCUCCGUUGAAUGGAGUUUAUCAUG, the “polymerase ribozyme fitness (log ratio)” value is reported as -1.09.
In the case of GGAUCUUCUCGAUCUAACAAAAAAGACAAAUCUGCCACAAAGCUUGAGAGCAUCUUCGGGUGCAGAGGCGGCAGCCUUCGGUGGCGCGAUAGAGCCAACGUUCUCAACUAUGACACGCAAAACGCGUGCUCCGUUGAAUGGAGUUUAUCAUG, the “polymerase ribozyme fitness (log ratio)” value is reported as -2.81.
With GGAUCUUCUCGAUCUAACAAAAAAGACAAAUCUGCCACAAAGCUUGAGAGCAUCUUCGGGUGCAGAGGCGGCAGCCUUCGGUGGCGCGAUAGCGCCAACGUCCUCAACUAUGACACGCAAAACGCGUGCUCCGUUGAAUGGAGUUUAUCAUG the “polymerase ribozyme fitness (log ratio)” value was 0.0901.
For GGAUCUUCUCGAUCUAACAAAAAAGACAAAUCUGCCACAAAGCUUGAGAGCAUCUUCGGGUGCAGAGGCGGCAGCCUUCGGUGGCGCGAUAGUGACAACGUUCUCAACUAUGACACGCAAAACGCGUGCUCCGUUGAAUGGAGUAUAUCAUG, the “polymerase ribozyme fitness (log ratio)” value was -1.82.
With GGAUCUUCUCGAUCUAACAAAAAAGACAAAUCUGCCACAAAGCUUGAGAGCAUCUUCGGGUGCAGAGGCGGCAGCCUUCGGUAGCGCGAUAGCGCCAGCGUUCUCAACUAUGACACGCAAAACGCGUGCUCCGUUGAAUGGAGUUUAUCAUG the “polymerase ribozyme fitness (log ratio)” value was 0.0303.
For GGAUCUUCUCGAUCUAACAAAAAAGACAAAUCUGCCACAAAGCUUGAGAGCAUCUUCGGUUGCAGAGGCGGCAGCCUUCGGUGGCGCGAUAGCCCCAACGUUCUCAACUAUGACACGCAAAACGCGUGCUCCGUUGAAUGGAGUUUAUCAUG, the “polymerase ribozyme fitness (log ratio)” value was -1.12.
In the case of GGAUCUUCUCGAUCUAACAAAAAAGACAAAUCUGCCACAAAGCUUGAGAGCAUCUUCGGUUGCAGAGGCGGCAGCCUUCGGUGGCGCGAUAGCGCCAUCGUUCUCAACUAUGACACGCAAAACGCGUGCUCCGUUGAAUGGAGUUUAUCAUG, the “polymerase ribozyme fitness (log ratio)” value is reported as -0.598.
With GGAUCUUCUCGAUCUAACAAAAAAGACAAAUCUGCCACAAAGCUUGAGAGCAUCUUCGGGUGCAGAGGCGGCAGCCUUCGGUGGCGCGAUAGCGCCAACGUUCGCAACUAUGACACGCAAAACGCGUGCUCCGUUGAAUGGAGUUUAUCAUG the “polymerase ribozyme fitness (log ratio)” value was 0.24.
With GGAUCUUCUCGAUCUAACAAAAAAGACAAAUCUGCCACAAAGCUUGAGAGCAUCUUCGGGUGCAGAGGCGGCAGCCUUCGGUGGAGCGAUAGCGCCAACGUUCACAACUAUGACACGCAAAACGCGUGCUCCGUUGAAUGGUGUUUAUCAUG the “polymerase ribozyme fitness (log ratio)” value was -3.14.
For GGAUCUUCUCGAUCUAACAAAAAAGACAAAUCUGCCACAAAGCUUGAGAGCAUCUUCGGUUGCAGAGGCGGCAGCCUUCGGUGGCGCGAUAUCGCCAACGUUCUCACCUAUGACACGCAAAACGCGUGCUCCGUUGAAUGGAGUUUAUCAUG, the “polymerase ribozyme fitness (log ratio)” value was at most -4.2.
In the case of GGAUCUUCUCGAUCUAACAAAAAAGACAAAUCUGCCACAAAGCUUGAGAGCAUCUUCGGGUGCAGAGGCGGCAGCCUUCGGUGGCGCGAUAGCGCCAACGUUCUCAACUAUGACACGCAAAACGCGUGCUCCGUUGAAUGGAGGUUAUCAUG, the “polymerase ribozyme fitness (log ratio)” value is reported as 1.35.
In the case of GGAUCUUCUCGAUCUAACAAAAAAGACAAAUCUGCCACAAAGCUUGAGAGCAUCUUCGGGUGCAGAGGCGGCAGCCUUCGGUGGCGCGAUAGCGCCAACGAUCUCAACUAUGACACGCAAAACGCGUGCUCCGUUGAAUGUAGUUUCUCAUG, the “polymerase ribozyme fitness (log ratio)” value is reported as -4.13.
For GGAUCUUCUCGAUCUAACAAAAAAGACAAAUCUGCCACAAAGCUUGAGAGCAUCUUCGGUUGCAGAGGCGGCAGCCUUCGGUGGCGCGAUAGCGCCAACGUUCUCAACUAUGACAUGCAAAACGCGUGCUCCGUUGAAUGAAGUUUAUCAUG, the “polymerase ribozyme fitness (log ratio)” value was -0.772.
For GGAUCUUCUCGAUCUAACAAAAAAGACAAAUCUGCCACAAAGCUUGAGAGCAUCUUCGGGUGCAGAGGCGGUAGCCUUCGGUGGCGCGAUAGCGCCAACGUUCUCAACUAUGACACGCAAAACGCGUGCUCCGUUGAAUGGAUUUUAUCAUG, the “polymerase ribozyme fitness (log ratio)” value was -3.39.
With GGAUCUUCUCGAUCUAACAAAAAAGACAAAUCUGCCACAAAGCUUGAGAGCAUCUUCGGGUGCAGAGGCGGCAGCCUUCGGUGGCGCGAUAGCGCCAACGUUCUCAACUAUGGUACGCAAAACGCGUGCUCCGUAGAAUGGAGUUUAUCAUG the “polymerase ribozyme fitness (log ratio)” value was -3.05.
In the case of GGAUCUUCUCGAUCUAACAAAAAAGACAAAUCUGCCACAAAGCUUGAGAGCAUCUUCGGGUGUAGAGGCGGCAGCCUUCGGUGGCGCGAUAGCACCAACGUUCUCAACUAUGAUACGCAAAACGCGUGCUCCGUUGAAUGGAGUUUAUCAUG, the “polymerase ribozyme fitness (log ratio)” value is reported as -2.5.
For GGAUCUUCUCGAUCUAACAAAAAAGACAAAUCUGCCACAAAGCUUGAGAGCAUCUUCGGGUGCAGAGGCGGCAGCCUUCGGUGGCGCGACAGAGCCAACGUUCUCAACUAUGACACGCAAAACGCGUGCUCCGUUGAAUGGAGUUUAUCUUG, the “polymerase ribozyme fitness (log ratio)” value was -0.698.
With GGAUCUUCUCGAUCUAACAAAAAAGACAAAUCUGCCACAAAGCUUGAGAGCAUCUUCGGGUGCAGAGGCGGCAGCCUUCGGUGGCGCUAUAGCGCCUACGUUCUCAGCUAUGAUACGCAAAACGCGUGCUCCGUUGAAUGGAGUUUAUCAUG the “polymerase ribozyme fitness (log ratio)” value was at most -4.2.
In the case of GGAUCUUCUCGAUCUAACAAAAAAGACAAAUCUGCCACAAAGCUUGAGAGCAUCUUCGGGGGCAGAGGCGGCAGCCUUCGGUGGCGCGAUAGUGCCAACGUUCUCAACUAUGACACGCAAAACGCGUGCUCCGUUGAAUGGAGUUUAUCAUG, the “polymerase ribozyme fitness (log ratio)” value is reported as -2.26.
For GGAUCUUCUCGAUCUAACAAAAAAGACAAAUCUGCCACAAAGCUUGAGAGCAUCUUCGGGUGCAGAGGCGGCAGCCUUCGGUGGCGCGAUAGCGCCAACGUUCUCAACUAUGACACGCAGAACGCGUCCUCCGUUGAAUGGGGUUUAUCAUG, the “polymerase ribozyme fitness (log ratio)” value was -2.95.
With GGAUCUUCUCGAUCUAACAAAAAAGACAAAUCUGCCACAAAGCUUGAGAGCAUCUUCGGUUGCAGAGGCGGCAGCCUUCGGUGGCGCGAUAGCGCCAACGUUCUCAACUAUGACACGCAAAACGCGUGGUCCGUUGAAUGGAGUUUAUCAUG the “polymerase ribozyme fitness (log ratio)” value was -3.43.
With GGAUCUUCUCGAUCUAACAAAAAAGACAAAUCUGCCACAAAGCUUGAGAGCAUCUUCGGGUGCAGAGGCGGCAGCCUUCGGUAGCGCGAUAGCGCCAACGUUCUCAACUAUGACACGCAAAACGCGGGCUCCGUUAAAUGGGGUUUAUCAUG the “polymerase ribozyme fitness (log ratio)” value was -3.28.
In the case of GGAUCUUCUCGAUCUAACAAAAAAGACAAAUCUGCCACAAAGCUUGAGAGCAUCUUCGGUUGCAGAGGCGGCAGCCUUCGGUGGCGCGAUAGUGCCAACGUUCUCAACUAUGACACGCAAAACGUGUGCUCCGUUGAAUGGAGUUUAUCAUG, the “polymerase ribozyme fitness (log ratio)” value is reported as -2.48.
With GGAUCUUCUCGAUCUAACAAAAAAGACAAAUCUGCCACAAAGCUUGAGAGCAUCUUCGGUUGCAGAGGCGGCAGCCUUCGGUGGCGCGAUAGCGCCAACGUUCUCAACUAUGACACGCAAAACGCGUGCUCCGUUGAAUGAAGUUUAUCAUG the “polymerase ribozyme fitness (log ratio)” value was -0.304.
For GGAUCUUCUCGAUCUAACAAAAAAGACAAAUCUGCCACAAAGCUUGAGAGCAUCUUCGGUUGCAGAGGCGGCAGCCUUCGGUGGCGCGAUAGCGCCAACGUUCUCAACUAUGACACGCAAAACGCGUGCUCCGUUGAAUGCAGUUUAUCAUG, the “polymerase ribozyme fitness (log ratio)” value was -1.16.
In the case of GGAUCUUCUCGAUCUAACAAAAAAGACAAAUCUGCCACAAAGCUUGAGAGCAUCUUCGGGUGCAGAGGCGGCAGCCUUCGGUGGCGCGAUAGCGCCAAGGUACUCAACUAUGACACGCAAAACGCGUGCUCCGUUGAAUGGAGGUUAUCAUG, the “polymerase ribozyme fitness (log ratio)” value is reported as at most -4.2.
With GGAUCUUCUCGAUCUAACAAAAAAGACAAAUCUGCCACAAAGCUUGAGAGCAUCUUCGGCUGCAGAGGCGGCAGCCUUCGGAGGCGCGAUAGCGCCAACGUUCUCAACUAUGACACGCAAAACGCGUGCUCCGUUGAAUGGAGUUUAUCAUG the “polymerase ribozyme fitness (log ratio)” value was -1.28.
In the case of GGAUCUUCUCGAUCUAACAAAAAAGACAAAUCUGCCACAAAGCUUGAGAGCAUCUUCGGUUGCAGAGGCGGCAGCCUUCGGUGGCGCGAUAGCGCCAAAGUUCUCAACUAUGACACGCAAAACGCGUGCUCCGUUGAAUUGAGUUUAUCAUG, the “polymerase ribozyme fitness (log ratio)” value is reported as at most -4.2.
With GGAUCUUCUCGAUCUAACAAAAAAGACAAAUCUGCCACAAAGCUUGAGAGCAUCUUCGGGUGCAGAGGCGGCAGCCUUCGGUGGCGCGAUAGCGCAAACGUUCUCAACUAUGACACGCAAAACGCGUGCUCCGUUGAAUGGAGUUUAUCAUG the “polymerase ribozyme fitness (log ratio)” value was -0.165.
In the case of GGAUCUUCUCGAUCUAACAAAAAAGACAAAUCUGCCACAAAGCUUGAGAGCAUCUUCGGUUGCAGAGGCGGCAGCCUUCGGUGGCUCGAUAGCGCCAACGUUCUCAACUAUGACACGCAAAACGCGUGCUCCGUUGAAUGGAGUUUAUCAUG, the “polymerase ribozyme fitness (log ratio)” value is reported as -4.01.
